Measurements reported in patent US20150038427A1 (SYMIC BIOMEDICAL, published 2015).
Ends that are not written are not given here. * marks the point of attachment. Dansyl = CN(C)c1cccc2c(S(=O)(=O)*)cccc12

How the values were obtained:
[1] = biological target: T1, collagen; assay: fluorescence plate binding assay, dansyl peptide on collagen-coated 96-well plate, equilibrium
T1 construct: also called collagen-treated well; collagen surface
Description: (§1) Binding assays were done in a 96-well high-binding plate, black with a clear bottom (Costar). Collagen was compared to untreated wells and BSA coated wells. Collagen and BSA were immobilized at 37° C. for 1 hr by incubating 90 μL/well at concentrations of 2 mg/mL in 10 mM HCl and 1× PBS, respectively. Each well was washed 3× with 1× PBS after incubating. Z-SILY was dissolved in 1× PBS at concentrations from 100 μM to 10 nM in 10-fold dilutions. Wells were incubated for 30 min at 37° C. and rinsed 3× with PBS and then filled with 90 μL of 1× PBS. Fluorescence readings were taken on an M5 Spectramax Spectrophotometer (Molecular Devices) at excitation/emission wavelengths of 335 nm/490 nm respectively.

[2] = biological target: T1, collagen; assay: fluorescence plate binding assay, dansyl peptide on collagen-coated wells, curve fitted to the data of FIG. 3
Description: as §1

B1: Dansyl-GRRANAALKAGELYKSILYGC (peptide)
peptide: Dansyl-GRRANAALKAGELYKSILYGC
notes: Fluorescently labelled version of SILY, tested as free peptide; also called ZSILY; Z-SILY
Question: Which results are given for B1?
Answer: Kd [1]: 860 nM; EC50 (read off the curve) [2]: ~900 nM
